Results taken from patent publication US20230365662A1.
Values joined by “and” are separate entries in the source; they are usually repeats but may differ in a detail not shown here. Equal entries are not always repeated.

B1: KB001 mouse Fab FASEBA VH S30N (Fab, V domains shown)
VH: EVQLKQSGPGLVAPSQSLSITCTVSGFSLNIYSVHWVRQPPGKGLEWLGMIWGGGSSDYNSALKSRLSISKDNSKSQVFLKMNSLQTDDTAMYYCARNGNFYAMDYWGQGTSVTVSS
VL: QIVLTQSPAIMSASLGERVTMTCTASSSVSSSFLHWYQQKPGSSPQLWIYSTSNLASGVPARFSGSGSGTSYSLTISSMEAEDAATYYCHQYHHSPYIYTFGGGTKLEIK
B2: KB001 mouse Fab FASEBA VH S56A (Fab, V domains shown)
VH: EVQLKQSGPGLVAPSQSLSITCTVSGFSLSIYSVHWVRQPPGKGLEWLGMIWGGGASDYNSALKSRLSISKDNSKSQVFLKMNSLQTDDTAMYYCARNGNFYAMDYWGQGTSVTVSS
VL: QIVLTQSPAIMSASLGERVTMTCTASSSVSSSFLHWYQQKPGSSPQLWIYSTSNLASGVPARFSGSGSGTSYSLTISSMEAEDAATYYCHQYHHSPYIYTFGGGTKLEIK
B3: KB001 mouse Fab FASEBA VH S57A (Fab, V domains shown)
VH: EVQLKQSGPGLVAPSQSLSITCTVSGFSLSIYSVHWVRQPPGKGLEWLGMIWGGGSADYNSALKSRLSISKDNSKSQVFLKMNSLQTDDTAMYYCARNGNFYAMDYWGQGTSVTVSS
VL: QIVLTQSPAIMSASLGERVTMTCTASSSVSSSFLHWYQQKPGSSPQLWIYSTSNLASGVPARFSGSGSGTSYSLTISSMEAEDAATYYCHQYHHSPYIYTFGGGTKLEIK
B4: KB001 mouse Fab FASEBA VH K64A (Fab, V domains shown)
VH: EVQLKQSGPGLVAPSQSLSITCTVSGFSLSIYSVHWVRQPPGKGLEWLGMIWGGGSSDYNSALASRLSISKDNSKSQVFLKMNSLQTDDTAMYYCARNGNFYAMDYWGQGTSVTVSS
VL: QIVLTQSPAIMSASLGERVTMTCTASSSVSSSFLHWYQQKPGSSPQLWIYSTSNLASGVPARFSGSGSGTSYSLTISSMEAEDAATYYCHQYHHSPYIYTFGGGTKLEIK
B5: KB001 mouse Fab FASEBA VH S28P (Fab, V domains shown)
VH: EVQLKQSGPGLVAPSQSLSITCTVSGFPLSIYSVHWVRQPPGKGLEWLGMIWGGGSSDYNSALKSRLSISKDNSKSQVFLKMNSLQTDDTAMYYCARNGNFYAMDYWGQGTSVTVSS
VL: QIVLTQSPAIMSASLGERVTMTCTASSSVSSSFLHWYQQKPGSSPQLWIYSTSNLASGVPARFSGSGSGTSYSLTISSMEAEDAATYYCHQYHHSPYIYTFGGGTKLEIK
B6: KB001 mouse Fab FASEBA VH S30A (Fab, V domains shown)
VH: EVQLKQSGPGLVAPSQSLSITCTVSGFSLAIYSVHWVRQPPGKGLEWLGMIWGGGSSDYNSALKSRLSISKDNSKSQVFLKMNSLQTDDTAMYYCARNGNFYAMDYWGQGTSVTVSS
VL: QIVLTQSPAIMSASLGERVTMTCTASSSVSSSFLHWYQQKPGSSPQLWIYSTSNLASGVPARFSGSGSGTSYSLTISSMEAEDAATYYCHQYHHSPYIYTFGGGTKLEIK
B7: KB001 mouse Fab FASEBA VH S57V (Fab, V domains shown)
VH: EVQLKQSGPGLVAPSQSLSITCTVSGFSLSIYSVHWVRQPPGKGLEWLGMIWGGGSVDYNSALKSRLSISKDNSKSQVFLKMNSLQTDDTAMYYCARNGNFYAMDYWGQGTSVTVSS
VL: QIVLTQSPAIMSASLGERVTMTCTASSSVSSSFLHWYQQKPGSSPQLWIYSTSNLASGVPARFSGSGSGTSYSLTISSMEAEDAATYYCHQYHHSPYIYTFGGGTKLEIK
B8: KB001 mouse Fab FASEBA VH S30Y (Fab, V domains shown)
VH: EVQLKQSGPGLVAPSQSLSITCTVSGFSLYIYSVHWVRQPPGKGLEWLGMIWGGGSSDYNSALKSRLSISKDNSKSQVFLKMNSLQTDDTAMYYCARNGNFYAMDYWGQGTSVTVSS
VL: QIVLTQSPAIMSASLGERVTMTCTASSSVSSSFLHWYQQKPGSSPQLWIYSTSNLASGVPARFSGSGSGTSYSLTISSMEAEDAATYYCHQYHHSPYIYTFGGGTKLEIK
B9: KB001 mouse Fab FASEBA VH K64R (Fab, V domains shown)
VH: EVQLKQSGPGLVAPSQSLSITCTVSGFSLSIYSVHWVRQPPGKGLEWLGMIWGGGSSDYNSALRSRLSISKDNSKSQVFLKMNSLQTDDTAMYYCARNGNFYAMDYWGQGTSVTVSS
VL: QIVLTQSPAIMSASLGERVTMTCTASSSVSSSFLHWYQQKPGSSPQLWIYSTSNLASGVPARFSGSGSGTSYSLTISSMEAEDAATYYCHQYHHSPYIYTFGGGTKLEIK
B10: KB001 mouse Fab FASEBA VH V34I (Fab, V domains shown)
VH: EVQLKQSGPGLVAPSQSLSITCTVSGFSLSIYSIHWVRQPPGKGLEWLGMIWGGGSSDYNSALKSRLSISKDNSKSQVFLKMNSLQTDDTAMYYCARNGNFYAMDYWGQGTSVTVSS
VL: QIVLTQSPAIMSASLGERVTMTCTASSSVSSSFLHWYQQKPGSSPQLWIYSTSNLASGVPARFSGSGSGTSYSLTISSMEAEDAATYYCHQYHHSPYIYTFGGGTKLEIK
B11: KB001 mouse Fab FASEBA VH S61N (Fab, V domains shown)
VH: EVQLKQSGPGLVAPSQSLSITCTVSGFSLSIYSVHWVRQPPGKGLEWLGMIWGGGSSDYNNALKSRLSISKDNSKSQVFLKMNSLQTDDTAMYYCARNGNFYAMDYWGQGTSVTVSS
VL: QIVLTQSPAIMSASLGERVTMTCTASSSVSSSFLHWYQQKPGSSPQLWIYSTSNLASGVPARFSGSGSGTSYSLTISSMEAEDAATYYCHQYHHSPYIYTFGGGTKLEIK
B12: KB001 mouse Fab FASEBA VH Y59V (Fab, V domains shown)
VH: EVQLKQSGPGLVAPSQSLSITCTVSGFSLSIYSVHWVRQPPGKGLEWLGMIWGGGSSDVNSALKSRLSISKDNSKSQVFLKMNSLQTDDTAMYYCARNGNFYAMDYWGQGTSVTVSS
VL: QIVLTQSPAIMSASLGERVTMTCTASSSVSSSFLHWYQQKPGSSPQLWIYSTSNLASGVPARFSGSGSGTSYSLTISSMEAEDAATYYCHQYHHSPYIYTFGGGTKLEIK
B13: KB001 mouse Fab FASEBA VH S30G (Fab, V domains shown)
VH: EVQLKQSGPGLVAPSQSLSITCTVSGFSLGIYSVHWVRQPPGKGLEWLGMIWGGGSSDYNSALKSRLSISKDNSKSQVFLKMNSLQTDDTAMYYCARNGNFYAMDYWGQGTSVTVSS
VL: QIVLTQSPAIMSASLGERVTMTCTASSSVSSSFLHWYQQKPGSSPQLWIYSTSNLASGVPARFSGSGSGTSYSLTISSMEAEDAATYYCHQYHHSPYIYTFGGGTKLEIK
B14: KB001 mouse Fab FASEBA VH S61T (Fab, V domains shown)
VH: EVQLKQSGPGLVAPSQSLSITCTVSGFSLSIYSVHWVRQPPGKGLEWLGMIWGGGSSDYNTALKSRLSISKDNSKSQVFLKMNSLQTDDTAMYYCARNGNFYAMDYWGQGTSVTVSS
VL: QIVLTQSPAIMSASLGERVTMTCTASSSVSSSFLHWYQQKPGSSPQLWIYSTSNLASGVPARFSGSGSGTSYSLTISSMEAEDAATYYCHQYHHSPYIYTFGGGTKLEIK
B15: KB001 mouse Fab FASEBA VH S28E (Fab, V domains shown)
VH: EVQLKQSGPGLVAPSQSLSITCTVSGFELSIYSVHWVRQPPGKGLEWLGMIWGGGSSDYNSALKSRLSISKDNSKSQVFLKMNSLQTDDTAMYYCARNGNFYAMDYWGQGTSVTVSS
VL: QIVLTQSPAIMSASLGERVTMTCTASSSVSSSFLHWYQQKPGSSPQLWIYSTSNLASGVPARFSGSGSGTSYSLTISSMEAEDAATYYCHQYHHSPYIYTFGGGTKLEIK
B16: KB001 mouse Fab FASEBA VH S61Q (Fab, V domains shown)
VH: EVQLKQSGPGLVAPSQSLSITCTVSGFSLSIYSVHWVRQPPGKGLEWLGMIWGGGSSDYNQALKSRLSISKDNSKSQVFLKMNSLQTDDTAMYYCARNGNFYAMDYWGQGTSVTVSS
VL: QIVLTQSPAIMSASLGERVTMTCTASSSVSSSFLHWYQQKPGSSPQLWIYSTSNLASGVPARFSGSGSGTSYSLTISSMEAEDAATYYCHQYHHSPYIYTFGGGTKLEIK
B17: KB001 mouse Fab FASEBA VH S61D (Fab, V domains shown)
VH: EVQLKQSGPGLVAPSQSLSITCTVSGFSLSIYSVHWVRQPPGKGLEWLGMIWGGGSSDYNDALKSRLSISKDNSKSQVFLKMNSLQTDDTAMYYCARNGNFYAMDYWGQGTSVTVSS
VL: QIVLTQSPAIMSASLGERVTMTCTASSSVSSSFLHWYQQKPGSSPQLWIYSTSNLASGVPARFSGSGSGTSYSLTISSMEAEDAATYYCHQYHHSPYIYTFGGGTKLEIK
B18: KB001 mouse Fab FASEBA VH I31T (Fab, V domains shown)
VH: EVQLKQSGPGLVAPSQSLSITCTVSGFSLSTYSVHWVRQPPGKGLEWLGMIWGGGSSDYNSALKSRLSISKDNSKSQVFLKMNSLQTDDTAMYYCARNGNFYAMDYWGQGTSVTVSS
VL: QIVLTQSPAIMSASLGERVTMTCTASSSVSSSFLHWYQQKPGSSPQLWIYSTSNLASGVPARFSGSGSGTSYSLTISSMEAEDAATYYCHQYHHSPYIYTFGGGTKLEIK
B19: KB001 mouse Fab FASEBA VH S57Q (Fab, V domains shown)
VH: EVQLKQSGPGLVAPSQSLSITCTVSGFSLSIYSVHWVRQPPGKGLEWLGMIWGGGSQDYNSALKSRLSISKDNSKSQVFLKMNSLQTDDTAMYYCARNGNFYAMDYWGQGTSVTVSS
VL: QIVLTQSPAIMSASLGERVTMTCTASSSVSSSFLHWYQQKPGSSPQLWIYSTSNLASGVPARFSGSGSGTSYSLTISSMEAEDAATYYCHQYHHSPYIYTFGGGTKLEIK
B20: KB001 mouse Fab FASEBA VH I31V (Fab, V domains shown)
VH: EVQLKQSGPGLVAPSQSLSITCTVSGFSLSVYSVHWVRQPPGKGLEWLGMIWGGGSSDYNSALKSRLSISKDNSKSQVFLKMNSLQTDDTAMYYCARNGNFYAMDYWGQGTSVTVSS
VL: QIVLTQSPAIMSASLGERVTMTCTASSSVSSSFLHWYQQKPGSSPQLWIYSTSNLASGVPARFSGSGSGTSYSLTISSMEAEDAATYYCHQYHHSPYIYTFGGGTKLEIK
B21: KB001 mouse Fab FASEBA VH I31M (Fab, V domains shown)
VH: EVQLKQSGPGLVAPSQSLSITCTVSGFSLSMYSVHWVRQPPGKGLEWLGMIWGGGSSDYNSALKSRLSISKDNSKSQVFLKMNSLQTDDTAMYYCARNGNFYAMDYWGQGTSVTVSS
VL: QIVLTQSPAIMSASLGERVTMTCTASSSVSSSFLHWYQQKPGSSPQLWIYSTSNLASGVPARFSGSGSGTSYSLTISSMEAEDAATYYCHQYHHSPYIYTFGGGTKLEIK

Biological target: HRgpA-6H (Porphyromonas gingivalis) (UniProt P28784)
Experiment: ELISA on coated HRgpA-6H

Chain of UniProt P28784 (P28784 228-991 limits assumed): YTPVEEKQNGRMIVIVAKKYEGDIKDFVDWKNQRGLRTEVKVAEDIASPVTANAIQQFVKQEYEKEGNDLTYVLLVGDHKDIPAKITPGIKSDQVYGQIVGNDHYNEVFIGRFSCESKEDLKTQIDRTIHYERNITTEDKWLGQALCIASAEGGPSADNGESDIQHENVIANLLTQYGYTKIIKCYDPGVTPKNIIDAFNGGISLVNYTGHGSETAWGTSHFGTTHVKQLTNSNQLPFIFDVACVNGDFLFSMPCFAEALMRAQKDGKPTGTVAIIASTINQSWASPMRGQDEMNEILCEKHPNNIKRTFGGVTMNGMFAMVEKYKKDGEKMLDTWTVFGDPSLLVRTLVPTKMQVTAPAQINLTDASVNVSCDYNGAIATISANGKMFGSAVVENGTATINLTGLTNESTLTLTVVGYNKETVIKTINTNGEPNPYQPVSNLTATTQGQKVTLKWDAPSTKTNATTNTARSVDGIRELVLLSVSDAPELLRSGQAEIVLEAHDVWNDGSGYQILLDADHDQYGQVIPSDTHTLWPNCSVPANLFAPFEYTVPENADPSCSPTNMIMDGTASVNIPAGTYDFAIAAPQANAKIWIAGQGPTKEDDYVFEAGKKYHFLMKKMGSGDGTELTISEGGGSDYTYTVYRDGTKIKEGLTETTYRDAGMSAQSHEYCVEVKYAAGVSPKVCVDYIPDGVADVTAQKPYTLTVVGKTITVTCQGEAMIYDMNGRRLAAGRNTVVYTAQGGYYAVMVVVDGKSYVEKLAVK

Row | Binder | OD450nm | Ratio OD(Variant)/OD(WT)
1 | B1 | 0.565 and 0.56 | 1.12 and 1.11
2 | B2 | 0.891 and 0.86 and 0.82 | 1.01 and 0.978 and 0.932
3 | B3 | 0.922 | 1.05
4 | B4 | 0.89 | 1.08
5 | B5 | 0.545 and 0.452 and 0.514 | 1.01 and 0.837 and 0.952
6 | B6 | 0.534 and 0.499 and 0.494 | 1.06 and 0.989 and 0.979
7 | B7 | 0.911 and 0.869 | 1.04 and 0.988
8 | B8 | 0.53 and 0.488 | 1.05 and 0.967
9 | B9 | 0.87 | 1.05
10 | B10 | 0.891 and 0.868 and 0.866 | 1.08 and 1.05 (2×)
11 | B11 | 0.537 | 1.09
12 | B12 | 0.83 and 0.79 | 1.05 and 0.999
13 | B13 | 0.533 and 0.515 | 1.06 and 1.02
14 | B14 | 0.543 and 0.447 | 1.1 and 0.906
15 | B15 | 0.561 and 0.551 and 0.494 | 1.04 and 1.02 and 0.915
16 | B16 | 0.634 | 1.28
17 | B17 | – | 1.14 and 1.11 (2×) and 0.956
18 | B18 | 0.56 and 0.534 | 1.11 and 1.06
19 | B19 | 0.915 and 0.863 and 0.836 | 1.04 and 0.981 and 0.951
20 | B20 | 0.537 and 0.521 | 1.06 and 1.03
21 | B21 | 0.522 | 1.03
